Columns and labels:
SHP2-C SH2 = assay: SH2 binding enrichment of the phosphorylated peptide, bacterial display (enrichment ratio); higher = better substrate or ligand; peptides without Tyr show the background
Grb2 SH2 = Grb2 SH2 (UniProt P62993); assay: as above
c-Src SH2 = assay: as above
Fer (mouse) = assay: phosphorylation enrichment, bacterial display (enrichment ratio); higher = better substrate or ligand; peptides without Tyr show the background
Fes = Fes (UniProt P07332); assay: as above
Fes, sequence (P07332 whole entry, looked up): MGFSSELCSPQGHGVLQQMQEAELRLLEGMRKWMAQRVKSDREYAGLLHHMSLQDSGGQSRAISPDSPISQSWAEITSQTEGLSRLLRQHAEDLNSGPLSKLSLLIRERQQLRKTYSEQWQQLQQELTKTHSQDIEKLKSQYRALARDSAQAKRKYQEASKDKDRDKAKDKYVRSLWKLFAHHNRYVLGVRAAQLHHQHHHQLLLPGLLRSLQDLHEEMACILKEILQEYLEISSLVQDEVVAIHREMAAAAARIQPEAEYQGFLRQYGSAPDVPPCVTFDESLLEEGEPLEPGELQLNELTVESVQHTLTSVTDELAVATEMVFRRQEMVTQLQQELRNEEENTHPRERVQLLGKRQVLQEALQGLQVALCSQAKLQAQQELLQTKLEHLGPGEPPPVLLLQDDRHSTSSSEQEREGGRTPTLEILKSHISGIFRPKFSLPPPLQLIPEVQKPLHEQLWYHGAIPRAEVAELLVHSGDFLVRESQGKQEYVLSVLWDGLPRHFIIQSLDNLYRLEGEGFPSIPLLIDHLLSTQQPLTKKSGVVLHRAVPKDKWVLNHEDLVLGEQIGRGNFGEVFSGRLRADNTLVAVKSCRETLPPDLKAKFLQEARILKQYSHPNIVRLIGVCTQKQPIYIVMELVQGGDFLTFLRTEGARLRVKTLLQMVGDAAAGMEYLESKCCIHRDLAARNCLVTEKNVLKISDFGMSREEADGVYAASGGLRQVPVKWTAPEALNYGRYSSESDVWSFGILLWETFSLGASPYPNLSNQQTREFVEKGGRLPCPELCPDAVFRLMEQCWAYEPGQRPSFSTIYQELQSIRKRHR

c-Src = assay: as above
c-Abl (mouse) = assay: as above
FGFR1 = FGFR1 (UniProt P11362); assay: as above
FGFR1, sequence (P11362 whole entry, looked up): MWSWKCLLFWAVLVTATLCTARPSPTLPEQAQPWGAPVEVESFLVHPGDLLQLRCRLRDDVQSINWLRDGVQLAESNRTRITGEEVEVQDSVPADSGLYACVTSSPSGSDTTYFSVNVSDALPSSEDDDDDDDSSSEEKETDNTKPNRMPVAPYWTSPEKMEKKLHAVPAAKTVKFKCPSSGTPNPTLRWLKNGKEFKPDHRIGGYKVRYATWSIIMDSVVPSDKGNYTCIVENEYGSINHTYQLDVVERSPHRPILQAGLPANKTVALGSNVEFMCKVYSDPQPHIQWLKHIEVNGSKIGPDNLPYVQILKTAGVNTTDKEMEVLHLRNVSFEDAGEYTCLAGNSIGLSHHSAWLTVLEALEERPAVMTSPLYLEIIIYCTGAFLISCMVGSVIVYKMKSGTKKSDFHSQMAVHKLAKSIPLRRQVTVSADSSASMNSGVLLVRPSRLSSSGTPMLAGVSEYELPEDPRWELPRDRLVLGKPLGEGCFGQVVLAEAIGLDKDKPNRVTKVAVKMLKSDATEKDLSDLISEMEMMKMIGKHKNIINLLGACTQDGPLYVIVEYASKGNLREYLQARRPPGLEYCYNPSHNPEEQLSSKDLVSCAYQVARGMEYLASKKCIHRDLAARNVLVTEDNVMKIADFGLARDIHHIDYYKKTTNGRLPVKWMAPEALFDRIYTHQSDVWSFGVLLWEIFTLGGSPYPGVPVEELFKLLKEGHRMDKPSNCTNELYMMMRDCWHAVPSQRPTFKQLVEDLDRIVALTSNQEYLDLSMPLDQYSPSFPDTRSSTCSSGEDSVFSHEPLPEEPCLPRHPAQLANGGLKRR

Hck = Hck (UniProt P08631); assay: as above
Hck, sequence (P08631 whole entry, looked up): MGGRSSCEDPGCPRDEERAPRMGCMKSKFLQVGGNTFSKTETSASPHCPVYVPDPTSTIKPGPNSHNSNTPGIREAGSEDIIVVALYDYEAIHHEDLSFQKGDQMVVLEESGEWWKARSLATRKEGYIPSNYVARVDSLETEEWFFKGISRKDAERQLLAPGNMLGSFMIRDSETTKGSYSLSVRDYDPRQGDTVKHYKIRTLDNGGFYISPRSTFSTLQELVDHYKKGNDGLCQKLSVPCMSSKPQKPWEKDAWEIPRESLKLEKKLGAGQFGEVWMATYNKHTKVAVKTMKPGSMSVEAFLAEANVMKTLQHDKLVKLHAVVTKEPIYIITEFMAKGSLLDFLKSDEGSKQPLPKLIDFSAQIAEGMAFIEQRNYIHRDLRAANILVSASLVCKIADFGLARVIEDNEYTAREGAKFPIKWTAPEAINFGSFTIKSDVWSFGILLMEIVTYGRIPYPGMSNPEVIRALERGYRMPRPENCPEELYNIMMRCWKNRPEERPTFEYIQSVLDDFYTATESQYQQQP

EPHB2 = EPHB2 (UniProt P29323); assay: as above
Fyn = Fyn (UniProt P06241); assay: as above
Fyn, sequence (P06241 whole entry, looked up): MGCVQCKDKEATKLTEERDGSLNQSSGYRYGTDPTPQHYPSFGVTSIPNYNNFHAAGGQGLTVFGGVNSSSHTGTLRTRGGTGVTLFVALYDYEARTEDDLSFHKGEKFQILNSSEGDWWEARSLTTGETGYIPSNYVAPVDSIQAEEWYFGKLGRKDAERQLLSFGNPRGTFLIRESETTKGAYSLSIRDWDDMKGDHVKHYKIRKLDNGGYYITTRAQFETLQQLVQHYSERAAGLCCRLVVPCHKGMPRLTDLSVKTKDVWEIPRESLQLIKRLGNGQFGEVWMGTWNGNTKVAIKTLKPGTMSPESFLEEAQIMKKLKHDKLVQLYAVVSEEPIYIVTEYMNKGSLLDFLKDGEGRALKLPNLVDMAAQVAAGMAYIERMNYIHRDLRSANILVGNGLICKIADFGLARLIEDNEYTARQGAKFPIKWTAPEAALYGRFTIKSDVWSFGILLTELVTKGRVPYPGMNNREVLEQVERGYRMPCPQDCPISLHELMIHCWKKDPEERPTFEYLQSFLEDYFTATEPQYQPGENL

FGFR3 = FGFR3 (UniProt P22607); assay: as above
MERTK = MERTK (UniProt Q12866); assay: as above
AncSZ = assay: as above
Jak2 = Jak2 (UniProt O60674); assay: as above
Jak2, sequence (O60674 whole entry, looked up): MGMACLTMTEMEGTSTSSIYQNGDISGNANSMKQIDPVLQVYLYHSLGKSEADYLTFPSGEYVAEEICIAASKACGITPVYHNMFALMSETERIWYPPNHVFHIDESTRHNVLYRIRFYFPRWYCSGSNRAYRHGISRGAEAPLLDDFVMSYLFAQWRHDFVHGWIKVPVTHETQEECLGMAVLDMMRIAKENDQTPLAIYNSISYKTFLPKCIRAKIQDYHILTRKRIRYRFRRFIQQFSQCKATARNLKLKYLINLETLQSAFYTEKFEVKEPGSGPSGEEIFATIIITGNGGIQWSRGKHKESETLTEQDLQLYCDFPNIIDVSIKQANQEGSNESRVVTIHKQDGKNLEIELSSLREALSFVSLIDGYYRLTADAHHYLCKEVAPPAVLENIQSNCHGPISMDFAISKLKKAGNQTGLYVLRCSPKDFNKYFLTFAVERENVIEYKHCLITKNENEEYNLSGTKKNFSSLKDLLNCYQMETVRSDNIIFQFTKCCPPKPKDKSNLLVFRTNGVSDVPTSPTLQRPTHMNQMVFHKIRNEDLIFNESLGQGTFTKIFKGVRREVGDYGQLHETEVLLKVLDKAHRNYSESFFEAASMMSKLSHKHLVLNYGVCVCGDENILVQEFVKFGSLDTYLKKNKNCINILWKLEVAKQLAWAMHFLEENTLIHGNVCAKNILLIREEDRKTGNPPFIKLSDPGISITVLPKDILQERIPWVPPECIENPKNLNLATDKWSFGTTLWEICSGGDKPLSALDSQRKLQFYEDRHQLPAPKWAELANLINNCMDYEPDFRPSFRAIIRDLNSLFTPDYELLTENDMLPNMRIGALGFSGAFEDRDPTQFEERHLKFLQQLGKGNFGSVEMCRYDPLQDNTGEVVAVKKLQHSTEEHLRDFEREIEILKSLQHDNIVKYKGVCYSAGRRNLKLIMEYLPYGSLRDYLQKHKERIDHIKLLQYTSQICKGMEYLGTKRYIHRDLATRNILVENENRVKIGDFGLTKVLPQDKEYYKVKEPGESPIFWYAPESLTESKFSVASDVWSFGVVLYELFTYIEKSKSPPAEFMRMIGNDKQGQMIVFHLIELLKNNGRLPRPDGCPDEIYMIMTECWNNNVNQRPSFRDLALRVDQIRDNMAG

EPHB1 = EPHB1 (UniProt P54762); assay: as above
EPHB1, sequence (P54762 whole entry, looked up, the tested form may be a part): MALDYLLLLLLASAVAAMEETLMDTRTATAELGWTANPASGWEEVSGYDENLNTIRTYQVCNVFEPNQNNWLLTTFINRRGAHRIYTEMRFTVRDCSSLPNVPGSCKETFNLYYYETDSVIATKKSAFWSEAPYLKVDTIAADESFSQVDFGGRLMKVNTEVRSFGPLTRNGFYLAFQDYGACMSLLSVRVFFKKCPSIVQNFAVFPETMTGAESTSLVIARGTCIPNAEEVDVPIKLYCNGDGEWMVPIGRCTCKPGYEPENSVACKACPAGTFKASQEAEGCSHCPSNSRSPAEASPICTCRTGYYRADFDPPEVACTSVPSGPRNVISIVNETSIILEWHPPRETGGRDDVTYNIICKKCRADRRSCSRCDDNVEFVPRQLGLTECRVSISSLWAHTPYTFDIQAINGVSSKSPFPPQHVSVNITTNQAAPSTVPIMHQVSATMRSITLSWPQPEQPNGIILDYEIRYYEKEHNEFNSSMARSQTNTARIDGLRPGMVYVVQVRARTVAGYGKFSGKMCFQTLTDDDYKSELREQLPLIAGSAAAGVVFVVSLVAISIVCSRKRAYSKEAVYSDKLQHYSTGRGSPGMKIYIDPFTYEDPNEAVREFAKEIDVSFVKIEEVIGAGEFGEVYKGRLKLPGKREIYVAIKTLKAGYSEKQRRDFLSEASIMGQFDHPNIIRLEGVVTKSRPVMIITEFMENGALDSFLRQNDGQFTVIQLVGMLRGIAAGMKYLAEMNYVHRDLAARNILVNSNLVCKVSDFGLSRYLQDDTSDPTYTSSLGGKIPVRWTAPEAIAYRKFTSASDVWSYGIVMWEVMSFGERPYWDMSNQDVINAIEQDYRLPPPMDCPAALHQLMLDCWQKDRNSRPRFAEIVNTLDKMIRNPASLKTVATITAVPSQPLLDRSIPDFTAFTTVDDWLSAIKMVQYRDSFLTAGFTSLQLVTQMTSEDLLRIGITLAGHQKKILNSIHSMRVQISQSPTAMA
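For SH2 binding enrichment of the phosphorylated peptide, bacterial display in this document: peptide library displayed on the E. coli surface as eCPX fusions, selected cells deep-sequenced, score is each peptide's frequency after selection divided by its frequency in the input.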
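For phosphorylation enrichment, bacterial display in this document: 11-residue human phosphosite peptides and single-mutation variants displayed on the E. coli surface, counted by deep sequencing, each peptide's frequency after selection divided by its frequency in the unselected input library; frequency after pTyr selection over input frequency; kinase dosed for 20-30% of maximal phosphorylation in three min.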

Grb2 SH2, sequence (P62993 whole entry, looked up): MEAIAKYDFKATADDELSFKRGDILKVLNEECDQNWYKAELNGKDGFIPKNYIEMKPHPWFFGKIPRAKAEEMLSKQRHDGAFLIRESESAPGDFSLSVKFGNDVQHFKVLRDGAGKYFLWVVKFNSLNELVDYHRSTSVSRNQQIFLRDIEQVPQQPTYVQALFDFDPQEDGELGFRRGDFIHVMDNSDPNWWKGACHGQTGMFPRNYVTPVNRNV

Sequence	SH2 binding enrichment (SHP2-C SH2)	SH2 binding enrichment (Grb2 SH2)	SH2 binding enrichment (c-Src SH2)	phosphorylation enrichment (Fer (mouse))	phosphorylation enrichment (Fes)	phosphorylation enrichment (c-Src)	phosphorylation enrichment (c-Abl (mouse))	phosphorylation enrichment (FGFR1)	phosphorylation enrichment (Hck)	phosphorylation enrichment (EPHB2)	phosphorylation enrichment (Fyn)	phosphorylation enrichment (FGFR3)	phosphorylation enrichment (MERTK)	phosphorylation enrichment (AncSZ)	phosphorylation enrichment (Jak2)	phosphorylation enrichment (EPHB1)
RRKRAYVEIEF [MAK16_Y282_Q277R_YF]	0.459	0.504	0.434	0.551	0.828	0.542	0.58	0.563	0.505	0.658	0.58	0.871	0.759	0.665	0.593	0.582
RRVLVYGGRGA [QDPR_Y16]	0.683	0.608	0.407	0.716	0.681	0.674	0.575	0.357	0.597	0.822	0.563	0.702	0.549	1.1	0.361	0.488
RRYLYYYSYLL [PTEN_Y177_V175L]	0.712	0.973	0.686	1.24	1.75	1.68	1.02	1.74	1.17	0.91	0.816	1.93	5.8	1.13	3.29	1.13
RSHLPYDVTPE [IQGAP3_Y1098]	0.974	0.827	0.588	0.474	1.45	1.27	1.39	0.752	0.695	0.742	0.848	0.747	1	1.82	2.28	0.572
RWGQKYMTAVV [CYBA_Y72]	0.698	1.57	0.948	0.568	0.665	0.312	0.328	0.654	0.609	0.783	0.488	0.884	0.452	0.731	0.409	0.494
SAPPSYEETVA [LITAF_Y23]	0.975	0.761	0.909	0.531	1.09	0.398	0.727	0.65	0.569	0.636	0.645	0.672	0.414	1.1	0.828	0.6
SARFPYLMAEK [LDHB_Y173_R172P]	0.523	0.912	0.579	0.389	0.687	0.483	0.361	0.387	0.422	0.416	0.315	0.455	0.325	0.604	0.504	0.373
SDGHEYIFVDP [PDGFRB_Y579_YF]	0.544	0.769	0.769	0.447	0.811	0.512	0.573	1.75	0.43	0.486	0.509	1.37	0.425	2.08	1	0.478
SDVDLYQVRIA [PSMD9_Y70_T74I]	0.793	0.789	0.431	0.756	0.892	2.13	0.579	0.598	4.07	0.497	1.86	0.583	0.463	0.92	1.04	0.594
SEKISYVFMKR [SSX7_Y48_L43S_YF]	0.906	0.681	0.386	0.458	1.32	0.412	0.822	0.52	0.46	0.597	0.436	0.75	0.378	1.25	1.05	0.599
SEKIVYGHVDD [ACO2_Y71_L74V]	1.59	0.903	0.556	0.466	0.805	0.649	0.677	0.471	0.479	0.469	0.515	0.529	0.383	0.715	0.738	0.41
SENFTYIWWLN [PSG4_Y271_K267E_YF]	0.563	0.715	0.439	0.674	1.59	0.355	0.96	0.543	0.559	0.771	0.513	1.03	0.404	1.47	1.46	0.73
SEPDLYCDPRG [PKP1_Y160]	0.93	1.03	0.563	2.37	1.15	2.17	1.31	1.94	5.26	3.01	1.95	1.45	1.46	2.48	1.23	4.34
SETDDYAEIIV [PTK2_Y397_D402V]	0.761	0.975	0.795	0.82	1.17	0.61	0.677	1.16	0.655	1.04	0.519	1.2	0.524	1.4	1.09	0.83
SGDITYGQFAQ [PLCG1_Y210]	0.557	0.716	0.53	0.387	0.632	5.78	0.495	0.426	4.63	0.4	8.52	0.422	0.362	0.596	0.796	0.47
SGPRRYTIAAL [TTR_Y125]	0.572	0.867	0.533	0.383	0.579	0.498	0.637	0.456	0.375	0.53	0.482	0.419	0.428	0.605	0.639	0.444
SGTYQYIIAKF [FOXL2_Y83_I80T]	0.541	0.74	0.696	2.58	1.51	0.943	1.17	3.65	2.06	1.53	0.749	2.42	5.26	1.43	1.29	4.98

Sequence	SH2 binding enrichment (SHP2-C SH2)	SH2 binding enrichment (Grb2 SH2)	SH2 binding enrichment (c-Src SH2)	phosphorylation enrichment (Fer (mouse))	phosphorylation enrichment (Fes)	phosphorylation enrichment (c-Src)	phosphorylation enrichment (c-Abl (mouse))	phosphorylation enrichment (FGFR1)	phosphorylation enrichment (Hck)	phosphorylation enrichment (EPHB2)	phosphorylation enrichment (Fyn)	phosphorylation enrichment (FGFR3)	phosphorylation enrichment (MERTK)	phosphorylation enrichment (AncSZ)	phosphorylation enrichment (Jak2)	phosphorylation enrichment (EPHB1)
SHEELYKWFTS [DYNC1H1_Y3051]	0.837	0.887	0.562	3.4	1.21	1.55	1.33	5.57	1.25	0.577	0.918	3.6	4.28	1.28	1.05	0.608
SHGQDYLAGNK [GSTA2_Y147_V149A]	0.693	1.11	0.583	0.421	0.845	0.404	0.452	0.597	0.364	0.36	0.458	0.49	0.471	0.641	0.64	0.348
SHNKFYMLVAR [MFSD8_Y134_YF]	1.72	1.4	1.04	0.607	1.15	0.36	0.705	0.532	0.475	0.607	0.452	0.875	0.479	1.15	1.1	0.673
SKDQICPMKLK [RANBP17_Y823_Y823C]	0.586	1.08	0.744	0.614	0.781	0.505	0.632	0.595	0.573	0.565	0.599	0.643	0.553	0.825	0.746	0.385
SKEPYYVRCIK [MYO1D_Y586]	0.674	0.748	0.498	0.501	0.966	0.451	0.705	0.58	0.405	0.511	0.417	0.669	0.403	1.06	1	0.566
SKNSKYNAEST [PSEN1_Y315]	0.595	0.759	0.489	0.396	0.609	0.425	0.52	0.339	0.351	0.426	0.363	0.366	0.35	0.482	0.673	0.309
SKQGKYLNWDA [ATM_Y54]	0.82	6.01	0.653	0.454	0.856	0.445	0.491	0.437	0.427	0.507	0.396	0.527	0.399	0.79	0.666	0.384
SLGSPYEQPPR [PDLIM4_Y137_G138E]	1	0.887	1.05	0.474	0.757	0.547	0.747	0.46	0.619	0.493	0.495	0.565	0.581	0.909	0.673	0.487
SLQSEYVHFGG [CDC14A_Y591_YF]	0.993	0.899	0.629	0.442	0.963	0.889	0.734	1.36	0.596	0.746	0.783	0.972	0.509	1.24	0.875	1.09
SLQSEYVHYGG [CDC14A_Y591]	0.69	0.587	0.533	0.441	0.774	0.848	0.6	0.811	0.927	0.973	0.69	0.95	0.558	0.919	0.655	0.854
SMAKYYASGIA [ACADSB_Y373_E376G]	0.791	0.771	0.578	0.444	0.622	0.394	0.599	0.437	0.463	0.7	0.331	0.469	0.381	0.497	0.665	0.408
SPDMLYQYLKQ [RPAP3_Y567]	0.659	1.21	0.68	11.6	0.692	1.96	0.856	3.36	8.16	1.78	1.18	2.04	7.39	1.09	0.727	3.35
SQQTFCRVSNM [ABCD1_Y181_Y181C_YF]	0.713	0.808	0.502	0.408	0.679	0.411	0.567	0.446	0.5	0.515	0.453	0.615	0.412	0.636	0.554	0.461
SRASYYRKGGC [ALK_Y1283_Y1278S]	0.473	0.644	0.607	0.326	0.5	0.52	0.585	0.414	0.37	0.371	0.38	0.335	0.428	0.522	0.641	0.34
SRDDDYETIAM [NPY1R_Y347]	0.789	0.979	0.8	1.11	1.28	0.562	0.977	0.599	0.737	1.03	0.612	0.753	0.5	1.75	1.16	1.31
SRDPFYEMLTA [CYTH1_Y382_A386T]	0.747	0.958	2.25	11	1.07	3.17	0.71	7.02	5.45	2.82	2.38	4.25	8.32	1.25	0.975	4.93

— the supplement of paper PMC10065799, “High-throughput profiling of sequence recognition by tyrosine kinases and SH2 domains using bacterial peptide display” (eLife, 2023)
